# Assay results: the supplement of paper PMC10567573
# B1: STEAP1 (parent)
# chain: WMLTRKQFGLLSFFFAVLHAIYSL
# B2: PCDHGA10 (parent)
# chain: FGIEIEVTDINDNAPKFQAENLDV
# Variants of: B1
# Assay: protein stability index of a GFP-peptide fusion (GPS, HEK-293T) (PSI 1-6); higher = more stable
# Conditions: c terminus: a fixed tail appended
# 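Also: lentivirally expressed fusions sorted by FACS into six bins by GFP to DsRed ratio, PSI derived from sequencing read proportions per bin multiplied by bin number.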
row,Variant,protein stability index
1,WMLARKQFGLLSFFFAVLHAIYSL [T4A],1.28
2,WMMTRKQFGLLSFFFAVLHAIYSL [L3M],2.22
3,WMSTRKQFGLLSFFFAVLHAIYSL [L3S],1.66
4,WMQTRKQFGLLSFFFAVLHAIYSL [L3Q],2.05
5,WMYTRKQFGLLSFFFAVLHAIYSL [L3Y],2.06
6,WMLTRKQFGLLSFFCAVLHAIYSL [F15C],1.77
7,WMLTRKQFGFLSFFFAVLHAIYSL [L10F],1.85
8,WMLTRKQFGALSFFFAVLHAIYSL [L10A],1.76
9,WMLTRKQFGTLSFFFAVLHAIYSL [L10T],1.96
10,WMLTRKQFGWLSFFFAVLHAIYSL [L10W],1.35
11,WMLTRKQQGLLSFFFAVLHAIYSL [F8Q],2.11
12,WMLTRKQCGLLSFFFAVLHAIYSL [F8C],1.67
13,WMLTRKQFGLLSFFFAVLHAIWSL [Y22W],1.99
14,WMLTRKQFGLLSFFFAVLHAQYSL [I21Q],1.61
15,WMLTRKQFGLESFFFAVLHAIYSL [L11E],2.43
16,WMLTRKQFGLLSFFFAILHAIYSL [V17I],1.73
17,WMLTRKQFGLLSFFFALLHAIYSL [V17L],1.7
18,WMLTRKQFGLLSFFFASLHAIYSL [V17S],2.07
19,WMLTRKQFGLLSFFFAFLHAIYSL [V17F],3.24
20,WCLTRKQFGLLSFFFAVLHAIYSL [M2C],1.49
21,WSLTRKQFGLLSFFFAVLHAIYSL [M2S],1.52
22,WPLTRKQFGLLSFFFAVLHAIYSL [M2P],2.23
23,WMLTRKQFGLLSFFFAVLHAIYSA [L24A],1.91

row,Variant,protein stability index
1,WMLTRKQFGLLSFFFAVLHAIYSN [L24N],1.98
2,WMLTRKQFFLLSFFFAVLHAIYSL [G9F],1.94
3,WMLTRKQFDLLSFFFAVLHAIYSL [G9D],3.04
4,WMLTRKQFNLLSFFFAVLHAIYSL [G9N],1.46
5,WMLTRKQFALLSFFFAVLHAIYSL [G9A],2.27
6,WMLTRKQFGLLSFFFAVLRAIYSL [H19R],1.74
7,WMLTRKQFGLLSFFFAVLPAIYSL [H19P],3.26
8,WMLTRKQFGLLSFFFAVLAAIYSL [H19A],3.76
9,WMLTRKQFGLLSFFFAVLQAIYSL [H19Q],2.22
10,WMLTRKQFGLLSFFFAVLTAIYSL [H19T],2.67
11,WMLTRKQFGLLSFFFAVLMAIYSL [H19M],3.02
12,WMLTRKQFGLLSFFFAVLSAIYSL [H19S],2.34
13,WMLTRKQFGLLSFFFAVLYAIYSL [H19Y],3.25
14,WMLTRKQFGLLAFFFAVLHAIYSL [S12A],2.05
15,WMLTRKQFGLLVFFFAVLHAIYSL [S12V],1.67
16,WMLTRKQFGLLGFFFAVLHAIYSL [S12G],1.75
17,WMLTRKQFGLLSFPFAVLHAIYSL [F14P],2.09
18,WMLTRKQFGLLSFFFAVDHAIYSL [L18D],3.5
19,WMLTRKQFGLLSFFFAVIHAIYSL [L18I],2
20,WMLTRKQFGLLSFFFAVEHAIYSL [L18E],3.98
21,WMLTRKQFGLLSTFFAVLHAIYSL [F13T],2.69
22,WMLTRKQFGLLSEFFAVLHAIYSL [F13E],4.58
23,WMLTRKQFGLLSRFFAVLHAIYSL [F13R],2.44

row,Variant,protein stability index
1,WMLTMKQFGLLSFFFAVLHAIYSL [R5M],2.47
2,WMLTSKQFGLLSFFFAVLHAIYSL [R5S],2.07
3,WMLTTKQFGLLSFFFAVLHAIYSL [R5T],3.62
4,WMLTRKQFGLLSFFFKVLHAIYSL [A16K],1.46
5,WMLTRKQFGLLSFFFDVLHAIYSL [A16D],2.07
6,WMLTRTQFGLLSFFFAVLHAIYSL [K6T],2.08
7,WMLTREQFGLLSFFFAVLHAIYSL [K6E],2.56
8,WMLTRYQFGLLSFFFAVLHAIYSL [K6Y],3.86
9,WMLTRKQFGLLSFFFAVLHAIYML [S23M],2.3
10,WMLTRKQFGLLSFFFAVLHAIYGL [S23G],1.48
11,WMLTRKQFGLLSFFFAVLHAIYIL [S23I],1.92
12,WMLTRKQFGLLSFFFAVLHAIYAL [S23A],1.36
13,WMLTRKQFGLLSFFFAVLHAIYNL [S23N],2.21
14,WMLTRKQFGLLSFFFAVLHLIYSL [A20L],2.46
15,CMLTRKQFGLLSFFFAVLHAIYSL [W1C],1.82
16,FMLTRKQFGLLSFFFAVLHAIYSL [W1F],1.71
17,VMLTRKQFGLLSFFFAVLHAIYSL [W1V],2.18
18,PMLTRKQFGLLSFFFAVLHAIYSL [W1P],2.13
19,RMLTRKQFGLLSFFFAVLHAIYSL [W1R],2.01
20,QMLTRKQFGLLSFFFAVLHAIYSL [W1Q],1.85
21,AMLTRKQFGLLSFFFAVLHAIYSL [W1A],1.91
22,KMLTRKQFGLLSFFFAVLHAIYSL [W1K],1.63

# Variants of: B2
# Assay: as above
# Conditions: c terminus: a fixed tail appended
row,Variant,protein stability index
1,FQIEIEVTDINDNAPKFQAENLDV [G2Q],2.09
2,FLIEIEVTDINDNAPKFQAENLDV [G2L],2.17
3,FKIEIEVTDINDNAPKFQAENLDV [G2K],1.52
4,FMIEIEVTDINDNAPKFQAENLDV [G2M],1.9
5,FPIEIEVTDINDNAPKFQAENLDV [G2P],4.63
6,FNIEIEVTDINDNAPKFQAENLDV [G2N],1.9
7,FHIEIEVTDINDNAPKFQAENLDV [G2H],2.18
8,FDIEIEVTDINDNAPKFQAENLDV [G2D],2.72
9,FCIEIEVTDINDNAPKFQAENLDV [G2C],2
10,FYIEIEVTDINDNAPKFQAENLDV [G2Y],3
11,FFIEIEVTDINDNAPKFQAENLDV [G2F],1.86
12,FIIEIEVTDINDNAPKFQAENLDV [G2I],2.57
13,FTIEIEVTDINDNAPKFQAENLDV [G2T],1.78
14,FAIEIEVTDINDNAPKFQAENLDV [G2A],2.02
15,FSIEIEVTDINDNAPKFQAENLDV [G2S],1.92
16,FEIEIEVTDINDNAPKFQAENLDV [G2E],1.88
17,FVIEIEVTDINDNAPKFQAENLDV [G2V],1.64
18,FRIEIEVTDINDNAPKFQAENLDV [G2R],1.49
19,FGIEIEGTDINDNAPKFQAENLDV [V7G],4.3
20,FGIEIEFTDINDNAPKFQAENLDV [V7F],2.25
21,FGIEIEHTDINDNAPKFQAENLDV [V7H],4.74
22,FGIEIEETDINDNAPKFQAENLDV [V7E],4.74
23,FGIEIECTDINDNAPKFQAENLDV [V7C],3.75
24,FGIEIEDTDINDNAPKFQAENLDV [V7D],5.46
25,FGIEIEATDINDNAPKFQAENLDV [V7A],4.33
26,VGIEIEVTDINDNAPKFQAENLDV [F1V],2.93
